Test results as given in US20240108766A1 (Bayer, published 2024).
Numbering of substitutions follows the chain as printed.

T1: human LRRC15 expressed on cells (human, UniProt Q8TF66 22-581)
T1 construct: whole, on cells; On HEK293 cells transfected with LRRC15/ZsGreen1 (Retrogenix), on HT29 cells transfected with human LRRC15, and endogenous on Saos-2; also called LRRC15/ZsGreen1 transfected HEK293 cells; HT29-LRRC15
T1 sequence (looked up): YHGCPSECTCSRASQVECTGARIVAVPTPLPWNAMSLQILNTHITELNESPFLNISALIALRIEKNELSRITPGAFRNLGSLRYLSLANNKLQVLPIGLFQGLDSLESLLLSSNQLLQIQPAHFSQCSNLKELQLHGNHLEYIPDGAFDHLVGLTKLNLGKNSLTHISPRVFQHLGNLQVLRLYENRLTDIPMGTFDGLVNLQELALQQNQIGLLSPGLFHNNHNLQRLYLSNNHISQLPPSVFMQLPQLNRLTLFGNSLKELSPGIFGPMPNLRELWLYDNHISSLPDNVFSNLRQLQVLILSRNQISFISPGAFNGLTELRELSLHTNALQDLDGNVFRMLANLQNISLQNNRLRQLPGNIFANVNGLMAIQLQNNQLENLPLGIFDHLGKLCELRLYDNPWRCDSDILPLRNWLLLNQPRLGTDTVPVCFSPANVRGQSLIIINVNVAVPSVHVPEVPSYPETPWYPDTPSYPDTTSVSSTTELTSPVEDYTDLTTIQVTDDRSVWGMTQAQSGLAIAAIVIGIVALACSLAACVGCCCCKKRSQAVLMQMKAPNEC

T2: human LRRC15 extracellular domain with C-terminal His tag (human, UniProt Q8TF66 22-538)
T2 construct: Recombinant, made in HEK293; the entry holds the extracellular domain and the His tag; SPR analyte; also called TPP-1545; hLRRC15 CT-His
T2 sequence: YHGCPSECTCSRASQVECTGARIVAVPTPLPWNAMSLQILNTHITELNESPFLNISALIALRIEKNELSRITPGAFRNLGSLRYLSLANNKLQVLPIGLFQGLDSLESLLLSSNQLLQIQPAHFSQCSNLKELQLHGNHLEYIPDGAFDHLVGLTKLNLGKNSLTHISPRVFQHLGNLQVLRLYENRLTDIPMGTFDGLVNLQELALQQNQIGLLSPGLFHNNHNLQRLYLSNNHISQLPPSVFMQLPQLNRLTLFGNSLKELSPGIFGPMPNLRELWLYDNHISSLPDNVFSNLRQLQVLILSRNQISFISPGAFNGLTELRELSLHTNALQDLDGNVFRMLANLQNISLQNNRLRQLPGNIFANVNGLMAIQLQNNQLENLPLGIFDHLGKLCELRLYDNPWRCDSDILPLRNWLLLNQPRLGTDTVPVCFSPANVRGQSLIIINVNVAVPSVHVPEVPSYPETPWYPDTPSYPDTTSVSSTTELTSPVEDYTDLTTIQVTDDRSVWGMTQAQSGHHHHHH

B1: TPP-12942 (antibody, human IgG1, kappa, V domains shown)
VH: EVQLVQSGAEVKKPGASVKVSCKASGYKFSSYWIEWVKQAPGQGLEWIGEILPGSDTTNYNEKFKDRATFTSDTSINTAYMELSRLRSDDTAVYYCARDRGNYRAWFGYWGQGTLVTVSS
VL: DIQMTQSPSSLSASVGDRVTITCRASQDISNYLNWYQQKPGGAVKFLIYYTSRLHSGVPSRFSGSGSGTDYTLTISSLQPEDFATYFCQQGEALPWTFGGGTKVEIKR
notes: Prior art humanized IgG1 kappa antibody, used as comparator; also called huM25; huM25-hIgG1Kappa
B2: TPP-17078 (antibody, human IgG1, kappa, V domains shown)
VH: B1 VH
VL: B1 VL with D28S, N31S, V44P, T51A, R53S, H55Q, F87Y, E92F, A93S
notes: also called 438H-M308-H05-hIgGkappa
B3: TPP-17421 (antibody, human IgG1, kappa, V domains shown)
VH: B1 VH with T57W, G108Q
VL: B1 VL with D28S, N31S, V44P, T51A, R53S, H55Q, F87Y, E92L, A93E
notes: also called 438H-M306-C11-hIgG1Kappa
B4: TPP-14389 (antibody, human IgG1, kappa, V domains shown)
VH: EVQLLESGGGLVQPGGSLRLSCAASGFTFSGYMMSWVRQAPGKGLEWVSGIYPSPGYTYYADSVKGRFTISRDNSKNTLYLQMNSLRAEDTAVYYCAREKASDLFGSYSEALDYWGQGTLVTVSS
VL: DIQMTQSPDSLSASVGDRVTITCRASQDVGSWLAWYQQKPGKAPKLLIFAASSLESGIPSRFSGSGSGTDFTLTISSLQPEDFATYYCQQANGFPLTFGGGTKVEIKR
notes: also called 13612-rec02-hIgG1Kappa

biological target: T1, human LRRC15 expressed on cells; experiment: flow cytometry, transfected HEK293, 0.5 µg/ml

| Binder | Median Fluorescence AF647 |
| --- | --- |
| B1 | 524000 |
| B2 | 527000 |
| B3 | 391000 |

biological target: T1, human LRRC15 expressed on cells; experiment: flow cytometry, transfected HEK293, 0.004 µg/ml

| Binder | Median Fluorescence AF647 |
| --- | --- |
| B1 | 19800 |
| B2 | 27600 |
| B3 | 13100 |

biological target: T2, human LRRC15 extracellular domain with …; experiment: SPR Biacore T200, antibody captured, LRRC15 analyte, 37°C
Method: (§1) To assess if anti-LRRC-15 antibodies show a difference in binding at different temperatures, binding assays were conducted using surface plasmon resonance (SPR). Binding assays were performed on a Biacore T200 instrument at temperatures of 10° C., 20° C., 25° C. and 37° C. with assay buffer HBS EP+, 1 mg/ml BSA (bovine serum albumine), 300 mM NaCl, 0.05% NaN₃. Antibodies were captured via anti-human Fc IgGs covalently amine coupled to a CM5 sensor chip and human LRRC15 was used as an analyte in a concentration series from 1.56-200 nM in multi cycle kinetics mode. Pre-experiments were conducted to have an equal capture level at each temperature. Obtained sensorgrams were fitted to a 1:1 Langmuir binding model to derive kinetic data.

| Binder | Kd [nM] |
| --- | --- |
| B1 | 72 |
| B2 | 9.9 |
| B3 | 2.4 |
| B4 | 66 |

biological target: T2, human LRRC15 extracellular domain with …; experiment: SPR Biacore T200, antibody captured, LRRC15 analyte, 10°C
Method: as §1

| Binder | Kd [nM] |
| --- | --- |
| B1 | 5.2 |
| B2 | 0.32 |
| B3 | 0.46 |
| B4 | 0.61 |

biological target: T2, human LRRC15 extracellular domain with …; experiment: calculated from SPR kd, 37°C
Method: as §1

| Binder | Complex Half Life [min] |
| --- | --- |
| B1 | 1.6 |
| B2 | 17.5 |
| B3 | 64.2 |
| B4 | 0.6 |

biological target: T2, human LRRC15 extracellular domain with …; experiment: SPR thermodynamics (van't Hoff/Eyring), 10-37°C
Method: as §1, with “Thermodynamics help to explain why an interaction is happening and what the driving forces for the interaction are. To” for “To”, “the thermodynamic parameters for anti-LRRC15” for “if anti-LRRC-15”, “antibodies” for “antibodies show a difference in binding at different temperatures,”, “BSA,” for “BSA (bovine serum albumine),”, “NaN3.” for “NaN₃.”, “data. Thermodynamic parameters were obtained using the integrated thermodynamics wizard in the Biacore T200 software. Van′t Hoff and Eyring plots were calculated and plotted and thermodynamic parameters were derived.” for “data.”

| Binder | -TΔS [kJ/mol] | ΔG^0 [kJ/mol] | ΔH^0 [kJ/mol] |
| --- | --- | --- | --- |
| B1 | 28 | -44 | -71 |
| B2 | 43 | -50 | -93 |
| B3 | -7.6 | -51 | -44 |
| B4 | 81 | -47 | -130 |

biological target: T1, human LRRC15 expressed on cells; experiment: flow cytometry, transfected HEK293, 62.5 µg/ml

| Binder | Median Fluorescence AF647 |
| --- | --- |
| B1 | 620000 |
| B2 | 621000 |
| B3 | 650000 |

biological target: T1, human LRRC15 expressed on cells; experiment: flow cytometry, transfected HEK293, 0.1 µg/ml

| Binder | Median Fluorescence AF647 |
| --- | --- |
| B1 | 213000 |
| B2 | 284000 |
| B3 | 102000 |

biological target: T2, human LRRC15 extracellular domain with …; experiment: SPR at 10-37°C (Example 3)
Method: as §1

| Binder | Temperature dependent loss in binding affinity [fold] |
| --- | --- |
| B1 | 13.8 |
| B2 | 30.9 |
| B3 | 5.2 |
| B4 | 108 |
